The test system of one series is ROS (H2O2) production. Briefly: Enzymatic activity, production of ROS (H2O2), spectrofluorimetric experimental setup. In kind it is biochemical. The conditions noted are these: for enzymatically active: fusion protein; for enzymatic activity, production of ROS (H2O2): spectrofluorimetric experimental setup. The text has this: The proteins APIT, the fusion protein zHER2:342-APIT and zHER2:342(K4R/K7A/K27R/K49R/K50A/K58A)-APIT were successfully recombinantly produced and purified. The proteins were verified for identity and purity by mass spectrometry and high-performance liquid chromatography (HPLC) (see FIGS. 3 and 4). Subsequently, both proteins were compared with respect to their enzymatic activity, in particular the production of ROS (H2O2) via a spectrofluorimetric experimental setup. The activity of both species is very similar: • APIT: 80 U/mg, • zHER2:342-APIT: 70 U/mg, • zHER2:342(K4R/K7A/K27R/K49R/K50A/K58A)-APIT: 70 U/mg.

The target of series [1] is T1, HER2 receptor on HER2-positive cells (BT474 cell line) (Homo sapiens, UniProt P04626).
T1 construct: host or cells: BT-474 (HER2-positive breast cancer cell line), fixed with 4% paraformaldehyde
Briefly: Cell-based HER-2 binding assay on fixed HER2-positive cells. The conditions noted are these: fluorescent dye labeled protein. The source says:
(§1) Shown are results of cell culture experiments to confirm the selective HER2 binding of the fusion proteins. The fusion proteins zHER2:342-APIT and zHER2:342(K4R/K7A/K27R/K49R/K50A/K58A)-APIT were labeled with fluorescent dye and probed for HER2 binding on fixed cells. Cell nuclei were stained with Hoechst33342.
Left panels: HER2-positive cells (BT474 cell line). Here, the fluorescent dye labeled fusion proteins bind to the HER2 receptor located on the cell membrane.
(§2) HER2 positive BT-474 (ACC 64), adherent cells were cultured in RPMI 1640 containing 20% (v/v) FBS, MEM non-essential amino acids, 1 mM Pyruvate, 10 μg/ml human insulin. HER2-negative MDA-MB-231 (ACC 732) adherent cells were cultured in Leibowitz' L15, 20% FBS. Cells were cultured from frozen stocks and passaged two times prior to the assay. Cells were incubated at 37° C., 5% CO2 humidified. At a confluency of 80% cell passaging was performed by trypsination using 0.25% (w/v) trypsin/0.2% (w/v) EDTA. Cells were seeded at 10 k cells/well on sterilized degreased 4%-gelatin coated cover slides ([…]) in 24-well plates and grown over night in the incubator. Cells were washed with PBS and fixated with freshly made 4% (w/v) paraformaldehyde solution for 30 min. […] Fluorescence signal was imaged using a ZEISS motorized Axio ZI observer fluorescence microscope. Images were analyzed and processed using Zeiss Zen Pro software.

In series [2] the test system is HER2-negative cells (MDA-MB-231). The experiment in a line: Cell-based HER-2 binding assay on fixed HER2-negative cells (negative control). To be noted: MDA-MB-231, fixed cells, fluorescent dye labeled protein. On the procedure: as §1
Right panels: HER2-negative cells (MDA-MB-231).
as §2

The next series deals with HER2-positive tumor. Briefly: Tumor targeting and biodistribution in mice with HER2-positive and HER2-negative tumor. In kind it is in vivo. The conditions noted are these: six hours after exposure, NIR-labelled protein. As for the experimental part:
Tumor targeting and biodistribution of (A) zHER2-APIT-NIR and (B) APIT-NIR in mice with HER2-negative tumor (black) and HER2-positive tumor (gray); (whiskers indicate 10-90% percentile values, line in the box is the median; significance was tested with the Mann-Whitney U test, *p<0.05 was considered statistically different; n.s.=not significant; n=6).
Labelling of 1 eq protein was performed with either 6 eq of AlexaFluor680™-maleimide (NIR) or 10 eq of TexasRed-maleimide in PBS containing 50 mM TCEP pH 7.4 at a protein concentration of 1.0 mg/mL overnight. Reaction mixture was purified via HiTrap Q HP using 50 mM Tris pH 8.0 (A) and 50 mM Tris 1 M NaCl pH 8.0 (B) with following method: 30% B for 45 CV, 30-100% B in 30 CV. The eluent was dialyzed in PBS. The degree of label (DOL) was determined according to the manufacturer's instructions using extinctions coefficient of 1.539 mLmg-1 cm-1 for APIT.

The next series deals with NIH3T3 cells spheroids. Briefly: Spheroid formation of NIH3T3 cells, propidium iodide staining. In kind it is cell-based, murine. To be noted: 24 hours. On the procedure: In this example, immortalized murine fibroblast NIH3T3 cells were specifically chosen for generating spheroids due to their ability to produce a consistently uniform, rounded, and tightly cohesive structure. […] To achieve this, NIH3T3 cells (150,000 cells/mL) were seeded on non-tissue culture treated petri dish coverslips in 10 μL drops. Subsequently, they were treated with camptothecin and compound 4, the latter being activated both with and without H2O2, and were incubated upside down for 24 hours at 37° C. under 5% CO2. Following the incubation period, the spheroids were stained with propidium iodide (0.003 μg per 10,000 cells) for 3 minutes at room temperature. The analysis of these spheroids was conducted using an Axio Observer.Z1 microscope equipped with an A-Plan 10×/0.25 Ph1 objective (Zeiss). The images were recorded with a phase-contrast channel, and a 43 DsRed Reflector (λex=538-562 nm λem=570-640 nm) with a mercury vapor short-arc lamp.

Data on five molecules can be found in patent US20260207715A1, “KIT FOR COMBINATION THERAPY OF TUMOR DISEASES AND/OR INFECTIONS” (priority 2022, published 2026).

“Also recorded” adds a separate entry of the source.

For the molecule “zHER2:342-APIT: fusion protein of targeting sequence zHER2:342 and APIT, SEQ ID NO. 4”, in the series on ROS (H2O2) production, the enzymatically active was “remain enzymatically active” and the “enzymatic activity, production of ROS (H2O2)” value (“enzymatic activity, production” for short) is 70 U/mg. Also, the “binding to HER2-positive cells” value in series [1] is on record as “bind to HER2-positive; also recorded: confirmed”. For the same molecule, the “binding to HER2-negative cells” value in series [2] is “not HER2-negative cells”.
For “zHER2:342(K4R/K7A/K27R/K49R/K50A/K58A)-APIT: fusion protein of lysine-deleted zHER2:342 mutant and APIT, SEQ ID NO. 5”, in the series with ROS (H2O2) production, the enzymatically active is on record as “enzymatically active” and the “enzymatic activity, production” value was 70 U/mg. In addition, the “binding to HER2-positive cells” value in series [1] is given as “bind to HER2 positive; also recorded: confirmed”. Moreover, in series [2], the “binding to HER2-negative cells” value is on record as “not HER2 negative cells”.
As for “zHER2-APIT: APIT fused with the zHER2 affibody, AlexaFluor680 (NIR) labelled for biodistribution”, the “levels in HER2-positive xenografts compared to HER2-negative tissues” value in the series with HER2-positive tumor is “Significantly higher levels”.
On to `CC[C@@]1(O)C(=O)OCc2c1cc1n(c2=O)Cc2cc3ccccc3nc2-1` [camptothecin], for which the effect on spheroids result with NIH3T3 cells spheroids is “disintegration of spheroids”.

B1: APIT: FAD-binding L-amino acid oxidase from Aplysia punctata, SEQ ID NO. 1 (protein, listed as Aplysia punctata)
chain: MDGVSRNRRQCNREVCGSTYDVAVVGAGPGGANSAYMLRDSGLDIAVFEYSDRVGGRLFTYQLPNTPDVNLEIGGMRFIEGAMHRLWRVISELGLTPKVFKEGFGKEGRQRFYLRGQSLTKKQVKSGDVPYDLSPEEKENQGNLVEYYLEKLTGLQLNGEPLKREVALKLTVPDGRFLYDLSFDEAMDLVASPEGKEFTRDTHVFTGEVTLDASAVSLFDDHLGEDYYGSEIYTLKEGLSSVPQGLLQAFLDAADSNEFYPNSHLKALRRKTNGQYVLYFEPTTSKDGQTTINYLEPLQVVCAQRVILAMPVYALNQLDWNQLRNDRATQAYAAVRPIPASKVFMTFDQPWWLENERKSWVTKSDALFSQMYDWQKSEASGDYILIASYADGLKAQYLRELKNQGEDIPGSDPGYNQVTEPLKDTILDHLTEAYGVERDSIPEPVTAASQFWTDYPFGCGWITWRAGFHFDDVISTMRRPSLKDEVYVVGADYSWGLISSWIEGALETSENVINDYFL
modifications: FAD cofactor
For B1, the “enzymatic activity, production” value with ROS (H2O2) production is on record as 80 U/mg. Besides, in the series on HER2-positive tumor, the “levels in HER2-positive xenografts compared to HER2-negative tissues” value was “did not show differences”.
